Reference: publication PMC10585395

Target: Regulatory ATPase variant A (RavA) (E. coli) (UniProt P31473)

ATPase activity of 0.5 uM RavA with equimolar full-length ViaA (ATP-NADH coupled assay): 3 fold
B1: von Willebrand factor type A interacting with AAA+ ATPase (ViaA) (natural protein)
chain: MLTLDTLNVMLAVSEEGLIEEMIIALLASPQLAVFFEKFPRLKAAITDDVPRWREALRSRLKDARVPPELTEEVMCYQQSQLLSTPQFIVQLPQILDLLHRLNSPWAEQARQLVDANSTITSALHTLFLQRWRLSLIVQATTLNQQLLEEEREQLLSEVQERMTLSGQLEPILADNNTAAGRLWDMSAGQLKRGDYQLIVKYGEFLNEQPELKRLAEQLGRSREAKSIPRNDAQMETFRTMVREPATVPEQVDGLQQSDDILRLLPPELATLGITELEYEFYRRLVEKQLLTYRLHGESWREKVIERPVVHKDYDEQPRGPFIVCVDTSGSMGGFNEQCAKAFCLALMRIALAENRRCYIMLFSTEIVRYELSGPQGIEQAIRFLSQQFRGGTDLASCFRAIMERLQSREWFDADAVVISDFIAQRLPDDVTSKVKELQRVHQHRFHAVAMSAHGKPGIMRIFDHIWRFDTGMRSRLLRRWRR
